Laboratory results reported in the supplement of paper PMC10567573.

B1: OR3A1 (parent)
chain: PMYFFLGNLSVLDVGCISVTVPSM
B2: RTP4 (parent)
chain: AFGWFRCSSCQRSWASAQVQILCH
B3: DYRK1B (parent)
chain: ARKYFERLPGGGWTLRRTKELRKD

Variants of: B1
Experiment: protein stability index of a GFP-peptide fusion (GPS, HEK-293T) (PSI 1-6); higher = more stable
Details: c terminus: a fixed tail appended
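Also: lentivirally expressed fusions sorted by FACS into six bins by GFP to DsRed ratio, PSI derived from sequencing read proportions per bin multiplied by bin number.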

Protein stability index, by site and new letter:
F4: T 1.26, K 1.52, R 2.19, S 1.91, D 2.63, P 3.27, M 4.21
T20: Y 3.62, N 2.96, W 2.62, G 1.69, F 2.71, V 3.39, P 1.39, M 4.27, Q 3.11, I 2.43, D 1.12, E 2.71, L 2.99
F5: S 3.9, V 2.3, P 1.79, N 2.82, E 1.46, D 2.06, G 1.83, H 2.64
I17: Y 1.63, N 4.43, A 3.4, D 3.15, F 3.32, M 2.76, S 3.03, W 3.68, H 2.75, R 3.71, P 3.39, K 2.97, E 2.17
C16: D 3.14, T 3.51, Q 2.99, M 3.08, F 2.85, P 2.85, S 3.15, E 2.33, Y 2.14, G 2.78, N 2.12, K 2.14, R 3.48, H 2.83
Y3: M 2.3, F 2.74, G 2.22, H 3.35, N 2.37, T 4.47, V 4.51, C 4.31
V21: W 2.5, R 1.86, I 2.55, S 2.8, F 1.96, N 3.36, K 3.59, C 3.1, P 2.96, T 2.02, Q 2.67, D 4.14, M 2.58
L9: S 1.99, R 3.52, Q 1.96, T 2.59, A 2.42, K 2.86, D 2, E 3.5, C 3.93
P1: H 2.79, S 2.89, C 2.46, Q 3.32, R 3.81, A 2.23, N 3.87, Y 2.1, E 2.01, T 2.16, L 4.36, I 2.88
V19: K 3.29, T 4.48, M 2.97, Y 2.93, Q 3.27, F 3.66, A 1.59, E 1.14, D 3.51, C 3.96, P 2.55, W 1.96, H 2.77, R 2.38, S 3.48, L 2.42, I 2.3
G7: F 3.9, H 1.39, K 2.05, Q 2.31, E 3.86, A 3.1, T 2.84, S 2.72, Y 2.69, N 1.99
M24: L 1.24, I 2.02, W 3.96, P 3.41, F 3.27, Y 2.58, C 2.27, N 3.98, T 2.89, D 3.67, A 3.27, V 3.3
S10: E 3.25, C 2.81, F 3.53, K 3.48, W 3.31, R 2.27, Y 3.38, Q 1.03, L 2.05, M 3.29
M2: G 2.32, K 3.24, T 2.15, L 4.31, E 2.1, I 2.31, H 2.67
S18: G 2.33, D 2.66, H 3.06, I 3.52, A 3.06, P 2.5, T 2.94, N 3.31, V 1.8, Q 2.54, R 3.87, W 2.37, E 2.7, Y 2.26, F 1.68, K 2.67
P22: Y 3.21, C 2.72, T 2.38, Q 3.27, I 3.76, F 2.46, W 3.15, E 3.69, M 2.94, V 2.1, K 3.56, D 2.56, L 2.95
N8: P 2.27, F 2.06, W 3.59, G 2.71
S23: Y 4.04, W 2.84, R 2.15, H 2.76, D 4.24, V 4.29, M 2.67, K 2.42, F 1.78, C 2.56, Q 3.82, N 2.58, A 3.86, I 2.86, P 2.46, T 2.84, G 2.99, L 3.71
L6: D 1.08, Q 2.67, P 1.62, E 2.34, M 1.6, T 2.21, V 2.32, A 2.24
G15: M 3.18, N 2.63, W 2.87, C 2.71, F 2.94, S 2.12, I 2.83, Y 1.93, D 3.7, T 2.71, P 2.36, H 3.73, R 3.7, K 2.02, A 2
V11: F 3.67, G 2.77, Y 2.86, I 3.56, R 3.13, E 3.18, Q 2.65, N 2.23, D 3.12, S 3.56, T 2.86, L 2.58
L12: H 2.78, C 2.83, N 1.49, A 2.37, I 3.78, F 2.22, Y 3.05, G 2.35, D 3.05, T 4.2, S 1.53, E 1.85, M 1.62
V14: A 3.36, R 1.39, C 1.99, D 1.96, P 4.21, M 3.24, N 3.31, Y 4.29, Q 1.89, H 2.23, G 3.25, L 4.23, T 3.36
D13: L 3.26, E 3.63, F 3.38, P 3.47, G 2.55, N 2.1, Q 2.48, C 4.05, Y 2.55, V 1.73, M 2.35, S 2.33, K 2.74, I 3.37

Variants of: B2
Experiment: as above
Details: c terminus: a fixed tail appended

Protein stability index of substitutions, site by site:
W4: P 3.99, C 2.77, Y 2.37, H 2.49, T 1.47, E 1.91, L 1.67, G 3.48
F2: T 2.73, D 2.56, P 2.67
F5: C 1.77
A1: V 2.11, H 1.78, G 3.21, R 3.15, W 2.44, E 1.79, S 4.21, L 2.49, M 2.42, C 2.22, T 2.12, Y 2.87, K 3.61
G3: P 3.37, A 2.75, H 1.14, N 2.75, D 1.45

Variants of: B3
Experiment: as above
Details: c terminus: a fixed tail appended

Protein stability index of substitutions, site by site:
K23: D 2.72, T 3.14, Q 2.83, P 3.1, Y 3.07, V 3.18, L 2.81, N 3.34, I 2.58, H 3.33
R22: T 4.19, Y 1.88
D24: I 3.82, Q 3.68, E 3.63, W 1.91, C 2.7, R 3, K 3.07, F 2.3, G 3.24, H 2.54, A 3.75, T 3.36, L 2.58
